Several values for one entry are separate records, joined by “and”; a condition that tells them apart may be missing. Identical values can stand only once.
T1: Human LAG-3 on cells (human LAG-3 expressing EL4 cells; activated human CD3+ T cells) (human, UniProt P18627 23-525)
T1 sequence (looked up): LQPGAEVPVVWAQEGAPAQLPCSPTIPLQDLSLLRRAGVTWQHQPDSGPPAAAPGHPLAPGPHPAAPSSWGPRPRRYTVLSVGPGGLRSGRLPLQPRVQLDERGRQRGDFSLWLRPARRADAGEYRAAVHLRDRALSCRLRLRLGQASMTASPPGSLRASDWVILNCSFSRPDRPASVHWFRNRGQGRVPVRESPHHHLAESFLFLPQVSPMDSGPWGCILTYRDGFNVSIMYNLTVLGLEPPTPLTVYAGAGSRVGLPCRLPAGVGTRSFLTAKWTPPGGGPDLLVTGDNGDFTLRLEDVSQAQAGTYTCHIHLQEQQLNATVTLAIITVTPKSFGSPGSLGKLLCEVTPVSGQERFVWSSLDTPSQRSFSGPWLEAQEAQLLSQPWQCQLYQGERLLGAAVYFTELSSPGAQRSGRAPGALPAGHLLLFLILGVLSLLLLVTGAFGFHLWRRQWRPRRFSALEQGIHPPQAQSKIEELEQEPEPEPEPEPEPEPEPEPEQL

T2: Recombinant human LAG-3 ECD-His6 (human, UniProt P18627 23-433)
T2 construct: also called LAG-3-His; recombinant human LAG-3-His
T2 sequence: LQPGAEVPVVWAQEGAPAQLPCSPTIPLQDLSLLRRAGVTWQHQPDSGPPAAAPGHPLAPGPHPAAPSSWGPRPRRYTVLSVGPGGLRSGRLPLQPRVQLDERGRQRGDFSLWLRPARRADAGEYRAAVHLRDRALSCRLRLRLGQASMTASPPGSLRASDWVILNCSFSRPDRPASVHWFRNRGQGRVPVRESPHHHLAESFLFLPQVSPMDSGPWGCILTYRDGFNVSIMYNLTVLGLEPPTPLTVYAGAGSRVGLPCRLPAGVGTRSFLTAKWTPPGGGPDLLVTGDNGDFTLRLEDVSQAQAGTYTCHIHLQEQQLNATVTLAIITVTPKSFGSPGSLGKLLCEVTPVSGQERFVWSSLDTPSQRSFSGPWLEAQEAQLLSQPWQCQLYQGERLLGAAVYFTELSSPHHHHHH

T3: Fc-tagged recombinant soluble LAG-3 (IMP321) (human, UniProt P18627 23-434)
T3 construct: also called LAG3-Ig molecule IMP321; recombinant sLAG-3; not shown: Fc / Ig part
T3 sequence (looked up): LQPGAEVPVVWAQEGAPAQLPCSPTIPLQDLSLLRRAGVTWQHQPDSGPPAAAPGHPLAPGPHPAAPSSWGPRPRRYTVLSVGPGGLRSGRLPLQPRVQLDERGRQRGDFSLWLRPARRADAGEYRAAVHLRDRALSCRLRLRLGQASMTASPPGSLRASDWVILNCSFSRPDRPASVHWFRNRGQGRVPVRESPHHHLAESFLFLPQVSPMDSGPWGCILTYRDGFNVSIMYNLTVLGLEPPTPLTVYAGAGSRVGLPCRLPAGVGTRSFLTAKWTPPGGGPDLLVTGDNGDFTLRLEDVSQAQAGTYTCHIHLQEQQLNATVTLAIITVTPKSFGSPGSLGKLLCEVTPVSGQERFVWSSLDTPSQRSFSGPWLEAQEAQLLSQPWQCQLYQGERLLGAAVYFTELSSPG


Assays:
[1] = biological target: T1, Human LAG-3 on cells (human LAG-3 …); test: cell-based or functional assay
[2] = biological target: T2, Recombinant human LAG-3 ECD-His6; test: SPR Biacore T100, Anova comparison of KD
Method: (§1) Wild type fucosylated and afucosylated antibodies were compared for their ability to bind to recombinant human LAG-3 ECD with a C-terminal His6 (SEQ ID NO:51) using the Biacore™ T100 (GE Healthcare™). Protein A was immobilised on a CM5 chip by primary amine coupling. This surface was then used to capture the humanised antibodies. Recombinant human LAG-3 ECD-His6 was then passed over the captured antibodies at 32, 8, 2, 0.5 and 0.125 nM and regeneration was carried out using 50 mM NaOH. The binding curves were double referenced with buffer injection (i.e. 0 nM) and the data was fitted to the T100 analysis software using the 1:1 model. The run was carried out at 25° C., using HBS-EP as the running buffer.
(§2) In order to investigate the statistical significance of this kinetic data, this experiment was repeated 3 times with the same batch of the four antibodies and the chimeric control. KD, ka and kd parameters were each log (base 10) transformed prior to separate statistical analyses. For each parameter, a mixed model analysis of variance CAnova′) was performed on transformed data, including terms for Run (random block effect) and Antibody.
(§3) From the Anova, geometric means were predicted for each antibody, along with statistically plausible ranges (95% confidence intervals) for each mean. Planned comparisons of antibodies were performed within the Anova. […]

[3] = biological target: T2, Recombinant human LAG-3 ECD-His6; test: SPR Biacore T100, Anova comparison of kd
Method: as §1, §2, §3

[4] = biological target: T2, Recombinant human LAG-3 ECD-His6; test: SPR Biacore T100, antibody captured on Protein A, LAG-3 ECD-His6 analyte, 1:1 model, 25 C, geometric mean of 3 runs
Method: as §1, §2

[5] = biological target: T3, Fc-tagged recombinant soluble LAG-3 …; test: SPR Biacore 3000, off-rate comparison with IMP731, IMP321 analyte at 64 nM
Method: The binding kinetics of the purified antibodies for a sLAG-3 molecule were assessed by SPR using a Biacore™ 3000. A goat anti-human kappa antibody (Southern Biotech, Catalogue No. 2060-01) was immobilised on a CM5 chip by primary amine coupling. Humanised anti-LAG3 antibodies were captured on this surface and the LAG3-Ig molecule IMP321 (Chrystelle Brignone, Caroline Grygar, Manon Marcu, Knut Schakel, Frederic Triebel, The Journal of Immunology, 2007, 179: 4202-4211) used as the analyte at 64 nM with a buffer injection (i.e. 0 nM) used to double reference the binding curves. Regeneration was with 10 mM Glycine, pH1.5. The run was carried out on the Biacore™ 3000, using HBS-EP as running buffer and at 25° C. Sensorgrams were normalised for binding at maximal association and off-rates compared against IMP731 by visual inspection of the sensorgram profiles.

Row | Binder | EC50 of depletion of antigen specific CD4 T cells by ADCC (primary human T cells, autologous NK cells, 18 h) [1] | EC50 of depletion of antigen specific LAG-3 positive CD8 T cells by ADCC [1] | KD ratio against H5L7 [2] [ratio] | kd ratio against H5L7 [3] [ratio] | koff [4] [s⁻¹] | KD ratio against IMP731 [2] [ratio] | kd ratio against IMP731 [3] [ratio] | Rank order of off-rates [5]
1 | H5L7BW (antibody, human IgG1, kappa, afucosylated: no fucose on the core carbohydrate structure attached to Asn297, Same plasmids as H5L7, expressed in the BioWa POTELLIGENT (FUT8 knock-out CHO) cell line; also called afucosylated antibody H5L7BW; afucosylated H5L7) heavy: not shown light: DIQMTQSPSSLSASVGDRVTITCKSSQSLLNPSNQKNYLAWYQQKPGKAPKLLVYFASTRDSGVPSRFSGSGSGTDFTLTISSLQPEDFATYYCLQHFGTPPTFGQGTKLEIKRTVAAPSVFIFPPSDEQLKSGTASVVCLLNNFYPREAKVQWKVDNALQSGNSQESVTEQDSKDSTYSLSSTLTLSKADYEKHKVYACEVTHQGLSSPVTKSFNRGEC | 14 µg/mL and 3.4 ng/mL | 122 µg/mL and 0.0175 µg/mL | 1.05 | 1.12 | 0.00441 | – | – | –
2 | H5L7 (antibody, human IgG1, kappa, Humanised IgG1/kappa of A9H12 (IMP731); also called fucosylated H5L7; non-ADCC enhanced variant H5L7) heavy: not shown light: DIQMTQSPSSLSASVGDRVTITCKSSQSLLNPSNQKNYLAWYQQKPGKAPKLLVYFASTRDSGVPSRFSGSGSGTDFTLTISSLQPEDFATYYCLQHFGTPPTFGQGTKLEIKRTVAAPSVFIFPPSDEQLKSGTASVVCLLNNFYPREAKVQWKVDNALQSGNSQESVTEQDSKDSTYSLSSTLTLSKADYEKHKVYACEVTHQGLSSPVTKSFNRGEC | – | – | – | – | 0.00395 | 0.0774 | 0.155 | 1
3 | IMP731 (antibody, human IgG1, kappa, Chimeric (murine variable domains, human IgG1/kappa constant regions); also called A9H12; chimeric antibody IMP731) heavy: not shown light: DIVMTQSPSSLAVSVGQKVTMSCKSSQSLLNGSNQKNYLAWYQQKPGQSPKLLVYFASTRDSGVPDRFIGSGSGTDFTLTISSVQAEDLADYFCLQHFGTPPTFGGGTKLEIKRTVAAPSVFIFPPSDEQLKSGTASVVCLLNNFYPREAKVQWKVDNALQSGNSQESVTEQDSKDSTYSLSSTLTLSKADYEKHKVYACEVTHQGLSSPVTKSFNRGEC | – | – | – | – | 0.0275 | – | – | –
